Test results published in paper PMC8138981.

Columns and labels:
[1] = target: mTFP1-AB-mcpVenus folding biosensor, W344R (human)
[2] = target: mTFP1-AB-mcpVenus folding biosensor, WT (human)
[3] = target: YFP-tagged Kv7.2 WT channel (human) (UniProt O43526); experiment: FRET or BRET; living HEK293T cells; mCFP-CaM (donor) and YFP (mCitrine)-tagged Kv7.2, ABCD or AB (acceptor), transfection ratio 1:5; spectral unmixing of confocal images; room temperature, buffer with 2 mM CaCl2, pH 7.4
Sequence of YFP-tagged Kv7.2 WT channel (human) (O43526 other isoform, or with tags, fused parts or gaps): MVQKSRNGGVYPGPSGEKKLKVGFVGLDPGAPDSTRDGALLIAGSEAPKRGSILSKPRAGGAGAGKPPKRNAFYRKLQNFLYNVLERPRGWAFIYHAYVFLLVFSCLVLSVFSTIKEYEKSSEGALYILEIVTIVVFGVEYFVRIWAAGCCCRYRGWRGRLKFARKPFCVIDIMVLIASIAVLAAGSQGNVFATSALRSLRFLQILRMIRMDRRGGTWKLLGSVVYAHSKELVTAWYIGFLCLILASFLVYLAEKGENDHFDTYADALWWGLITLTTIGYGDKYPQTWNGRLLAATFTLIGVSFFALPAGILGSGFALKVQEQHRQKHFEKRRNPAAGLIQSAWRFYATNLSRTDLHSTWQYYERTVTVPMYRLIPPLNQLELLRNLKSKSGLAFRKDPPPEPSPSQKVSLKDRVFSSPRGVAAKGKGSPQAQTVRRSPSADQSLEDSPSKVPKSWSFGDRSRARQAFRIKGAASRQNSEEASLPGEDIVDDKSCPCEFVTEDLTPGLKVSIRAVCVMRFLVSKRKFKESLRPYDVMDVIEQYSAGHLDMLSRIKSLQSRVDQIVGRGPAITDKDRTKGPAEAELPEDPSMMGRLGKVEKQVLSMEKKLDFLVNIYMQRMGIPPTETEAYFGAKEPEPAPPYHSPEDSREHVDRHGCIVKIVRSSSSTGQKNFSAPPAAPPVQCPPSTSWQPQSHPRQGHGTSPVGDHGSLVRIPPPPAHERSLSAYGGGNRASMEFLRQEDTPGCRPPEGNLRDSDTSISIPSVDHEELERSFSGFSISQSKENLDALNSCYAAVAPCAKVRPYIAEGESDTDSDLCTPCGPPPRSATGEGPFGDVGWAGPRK

Sequence of mTFP1-AB-mcpVenus folding biosensor, WT (human) (O43526 whole entry): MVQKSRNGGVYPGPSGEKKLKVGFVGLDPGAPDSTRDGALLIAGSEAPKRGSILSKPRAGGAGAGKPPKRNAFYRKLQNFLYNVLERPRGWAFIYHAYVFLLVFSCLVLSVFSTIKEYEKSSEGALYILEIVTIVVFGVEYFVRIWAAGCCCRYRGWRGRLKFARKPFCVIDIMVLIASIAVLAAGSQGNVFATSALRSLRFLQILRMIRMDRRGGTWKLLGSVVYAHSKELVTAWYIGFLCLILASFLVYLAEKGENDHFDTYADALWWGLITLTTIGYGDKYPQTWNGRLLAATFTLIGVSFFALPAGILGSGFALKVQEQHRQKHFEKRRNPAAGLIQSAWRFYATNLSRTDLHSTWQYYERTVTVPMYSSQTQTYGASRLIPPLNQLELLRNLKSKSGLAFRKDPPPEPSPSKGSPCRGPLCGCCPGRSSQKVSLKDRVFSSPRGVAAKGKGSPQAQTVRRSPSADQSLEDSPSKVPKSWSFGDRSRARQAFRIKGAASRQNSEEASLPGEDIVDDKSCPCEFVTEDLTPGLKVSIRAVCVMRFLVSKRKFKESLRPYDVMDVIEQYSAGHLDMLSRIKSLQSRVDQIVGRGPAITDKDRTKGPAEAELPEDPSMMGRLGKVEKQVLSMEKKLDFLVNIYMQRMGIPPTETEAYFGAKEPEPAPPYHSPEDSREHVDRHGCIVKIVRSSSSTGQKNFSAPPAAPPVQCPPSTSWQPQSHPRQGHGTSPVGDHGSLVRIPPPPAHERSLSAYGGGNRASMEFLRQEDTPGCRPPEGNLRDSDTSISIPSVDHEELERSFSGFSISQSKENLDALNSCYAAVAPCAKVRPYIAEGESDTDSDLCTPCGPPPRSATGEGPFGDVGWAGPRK

Row | FRET efficiency of the soluble fraction of the sensor co-expressed with CaM in E. coli, relative to the WT biosensor [1] [%] | FRET efficiency (ratio of peak emission at 528 and 492 nm) of the folding sensor co-expressed with CaM [2] | FRET efficiency [3] | Substance
1 | 33 | 0.4 | – | Calmodulin (from UniProt P0DP23 1-149) (natural protein)
2 | – | – | 0.18 | Calmodulin with an N-terminus mCFP-tag (from UniProt P0DP23 1-149) (natural protein)
